Patent US20210214449A1 (ZOETIS SERVICES, published 2021)
Residue numbers refer to the chain shown, from its start. Where two headings read alike, the source gives them in different places.

Columns and labels:
human NGF (human) = human NGF (human) (UniProt P01138); assay: SPR (Biacore T200), 100 nM mAb on NGF chip, vs parent mAb
rat NGF (rat) = rat NGF (rat) (UniProt P25427); assay: as above
canine NGF [1] = biological target: T1, canine NGF (canine, UniProt Q29074 110-229 (pig entry), limits assumed); assay: cell-based or functional assay
T1 chain: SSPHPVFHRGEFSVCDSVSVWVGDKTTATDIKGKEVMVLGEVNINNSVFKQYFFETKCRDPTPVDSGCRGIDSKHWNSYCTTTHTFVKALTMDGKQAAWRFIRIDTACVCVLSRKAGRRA

canine NGF [2] = biological target: T1, canine NGF; assay: cell-based or functional assay
canine NGF [3] = biological target: T1, canine NGF; assay: cell-based or functional assay

Chain of human NGF (human) (P01138 other isoform, or with tags, fused parts or gaps limits assumed): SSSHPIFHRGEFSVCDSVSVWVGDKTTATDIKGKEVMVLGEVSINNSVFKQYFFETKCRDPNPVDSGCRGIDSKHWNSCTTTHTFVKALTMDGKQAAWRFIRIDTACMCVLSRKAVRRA
Chain of rat NGF (rat) (P25427 122-241 limits assumed): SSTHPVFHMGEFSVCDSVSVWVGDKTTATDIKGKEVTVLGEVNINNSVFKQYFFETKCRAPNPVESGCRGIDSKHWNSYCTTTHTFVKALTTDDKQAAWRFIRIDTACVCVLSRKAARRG

B1: can9L12VH_K98A (antibody, V domains shown)
VH: EVQLVESGGDLVKPGGSLRLSCVASGFTFSSHGMHWVRQSPGKGLQWVAVINSGGSSTYYTDAVKGRFTISRDNAKNTVYLQMNSLRAEDTAMYYCAAESVGGWEQLVGPHFDYWGQGTLVIVSS
VL: QSVLTQPTSVSGSLGQRVTISCSGSTNNIGILGASWYQLFPGKAPKLLVYGNGNRPSGVPDRFSGADSGDSVTLTITGLQAEDEADYYCQSFDTTLGAHVFGGGTHLTVL
B1 showed a Percent Similarity Score (%) (human NGF (human)) of 8.58% and a Percent Similarity Score (%) (rat NGF (rat)) of 7.92%.

B2: can9L12VH_F112A (antibody, V domains shown)
VH: B1 VH with A98K, F112A
VL: B1 VL
For B2, the Percent Similarity Score (%) (human NGF (human)) was 8%.

B3: can9L12VH_V101A (antibody, V domains shown)
VH: B1 VH with A98K, V101A
VL: B1 VL
With B3 the Percent Similarity Score (%) (human NGF (human)) was 5.29%.

B4: ZTS-841 (antibody, V domains shown)
VH: B1 VH with A98K
VL: B1 VL
With B4 the “IC50 (read off the curve), canine NGF-induced pERK-1/2 in caTrkA-CHO cells” value (canine NGF [1]) was roughly 0.2 µg/ml and the “IC50 (read off the curve), canine NGF-induced TF-1 cell proliferation” value (canine NGF [2]) was roughly 8 ng/mL.

B5: can9L12VH_W104A (antibody, V domains shown)
VH: B1 VH with A98K, W104A
VL: B1 VL
Work on B5 yielded a Percent Similarity Score (%) (rat NGF (rat)) of 8.2%.

B6: ZTS-842 (antibody, V domains shown)
VH: EVQLVESGGDLVKPGGSLRLSCVASGFTFSTYGINWVRQAPGKGLQWVAYISSGGSSTYYADPVKGRFTISRDDAKNMLYLQMNSLRAEDTAIYYCAGSRYTYAYGGGYEFHFWGQGTLVTVSS
VL: QAVLNQPASVSGALGQKVTISCSGSTMDIDIFGVSWYQQLPGKAPKLLVDSDGDRPSGIPDRFSGSRSGNSGTLTITGLQAEDEADYHCQSGDSTLGALAIFGGGTHVTVL
For B6, the “IC50 (read off the curve), canine NGF-induced pERK-1/2 in caTrkA-CHO cells” value (canine NGF [1]) was roughly 0.1 µg/ml and the “IC50 (read off the curve), canine NGF-induced TF-1 cell proliferation” value (canine NGF [2]) was roughly 5 ng/mL.

B7: fel48L2 1.1 (antibody, V domains shown)
VH: B6 VH with E1D, S21T, D74N, S85N, R87K, A88T, I93T
VL: QAVLNQPSSVSGALGQRVTISCSGSTMDIDIFGVSWYQQIPGMAPKTIIDSDGDRPSGVPDRFSGSKSGSTGTLTITGLQAEDEADYYCQSGDSTLGALAIFGGGTHVTVLG
With B7 the “IC50 (read off the curve), canine NGF-induced TF-1 cell proliferation” value (canine NGF [3]) was roughly 7 ng/mL.
